Data as given in patent publication US20180155451A1 (published 2018).

B1: GpH7-A5/GpH7-B3 variant A327_08L/GpL16-k0 (antibody, human IgG1, kappa)
heavy 1: not shown
heavy 2: not shown
light: DIVMTQSPLSLPVTPGEPASISCQASESLVHSNRNTYLHWYLQKPGQSPQLLIYKVSNRFSGVPDRFSGSGSGTDFTLKISRVEAEDVGVYYCSQNTHVPPTFGQGTKVEIERTVAAPSVFIFPPSDEQLKSGTASVVCLLNNFYPREAKVQWKVDNALQSGNSQESVTEQDSKDSTYSLSSTLTLSKADYEKHKVYACEVTHQGLSSPVTKSFNRGEC
notes: heterodimerized IgG1, one H chain mutated; also called He Ab
B2: GpH7-A5/GpH7-B3 variant S298_12R/GpL16-k0 (antibody, human IgG1, kappa)
heavy 1: not shown
heavy 2: not shown
light: DIVMTQSPLSLPVTPGEPASISCQASESLVHSNRNTYLHWYLQKPGQSPQLLIYKVSNRFSGVPDRFSGSGSGTDFTLKISRVEAEDVGVYYCSQNTHVPPTFGQGTKVEIERTVAAPSVFIFPPSDEQLKSGTASVVCLLNNFYPREAKVQWKVDNALQSGNSQESVTEQDSKDSTYSLSSTLTLSKADYEKHKVYACEVTHQGLSSPVTKSFNRGEC
notes: as for B1
B3: GpH7-A5/GpH7-B3 variant A327_15Y/GpL16-k0 (antibody, human IgG1, kappa)
heavy 1: not shown
heavy 2: not shown
light: DIVMTQSPLSLPVTPGEPASISCQASESLVHSNRNTYLHWYLQKPGQSPQLLIYKVSNRFSGVPDRFSGSGSGTDFTLKISRVEAEDVGVYYCSQNTHVPPTFGQGTKVEIERTVAAPSVFIFPPSDEQLKSGTASVVCLLNNFYPREAKVQWKVDNALQSGNSQESVTEQDSKDSTYSLSSTLTLSKADYEKHKVYACEVTHQGLSSPVTKSFNRGEC
notes: as for B1
B4: GpH7-A5/GpH7-B3 variant A327_19Q/GpL16-k0 (antibody, human IgG1, kappa)
heavy 1: not shown
heavy 2: not shown
light: DIVMTQSPLSLPVTPGEPASISCQASESLVHSNRNTYLHWYLQKPGQSPQLLIYKVSNRFSGVPDRFSGSGSGTDFTLKISRVEAEDVGVYYCSQNTHVPPTFGQGTKVEIERTVAAPSVFIFPPSDEQLKSGTASVVCLLNNFYPREAKVQWKVDNALQSGNSQESVTEQDSKDSTYSLSSTLTLSKADYEKHKVYACEVTHQGLSSPVTKSFNRGEC
notes: as for B1
B5: GpH7-A5/GpH7-B3 variant N325_11K/GpL16-k0 (antibody, human IgG1, kappa)
heavy 1: not shown
heavy 2: not shown
light: DIVMTQSPLSLPVTPGEPASISCQASESLVHSNRNTYLHWYLQKPGQSPQLLIYKVSNRFSGVPDRFSGSGSGTDFTLKISRVEAEDVGVYYCSQNTHVPPTFGQGTKVEIERTVAAPSVFIFPPSDEQLKSGTASVVCLLNNFYPREAKVQWKVDNALQSGNSQESVTEQDSKDSTYSLSSTLTLSKADYEKHKVYACEVTHQGLSSPVTKSFNRGEC
notes: as for B1
B6: GpH7-A5/GpH7-B3 variant S298_09D/GpL16-k0 (antibody, human IgG1, kappa)
heavy 1: not shown
heavy 2: not shown
light: DIVMTQSPLSLPVTPGEPASISCQASESLVHSNRNTYLHWYLQKPGQSPQLLIYKVSNRFSGVPDRFSGSGSGTDFTLKISRVEAEDVGVYYCSQNTHVPPTFGQGTKVEIERTVAAPSVFIFPPSDEQLKSGTASVVCLLNNFYPREAKVQWKVDNALQSGNSQESVTEQDSKDSTYSLSSTLTLSKADYEKHKVYACEVTHQGLSSPVTKSFNRGEC
notes: as for B1
B7: GpH7-A5/GpH7-B3 variant A327_13S/GpL16-k0 (antibody, human IgG1, kappa)
heavy 1: not shown
heavy 2: not shown
light: DIVMTQSPLSLPVTPGEPASISCQASESLVHSNRNTYLHWYLQKPGQSPQLLIYKVSNRFSGVPDRFSGSGSGTDFTLKISRVEAEDVGVYYCSQNTHVPPTFGQGTKVEIERTVAAPSVFIFPPSDEQLKSGTASVVCLLNNFYPREAKVQWKVDNALQSGNSQESVTEQDSKDSTYSLSSTLTLSKADYEKHKVYACEVTHQGLSSPVTKSFNRGEC
notes: as for B1
B8: GpH7-A5/GpH7-B3 variant N325_16H/GpL16-k0 (antibody, human IgG1, kappa)
heavy 1: not shown
heavy 2: not shown
light: DIVMTQSPLSLPVTPGEPASISCQASESLVHSNRNTYLHWYLQKPGQSPQLLIYKVSNRFSGVPDRFSGSGSGTDFTLKISRVEAEDVGVYYCSQNTHVPPTFGQGTKVEIERTVAAPSVFIFPPSDEQLKSGTASVVCLLNNFYPREAKVQWKVDNALQSGNSQESVTEQDSKDSTYSLSSTLTLSKADYEKHKVYACEVTHQGLSSPVTKSFNRGEC
notes: as for B1
B9: GpH7-A5/GpH7-B3 variant N325_19Q/GpL16-k0 (antibody, human IgG1, kappa)
heavy 1: not shown
heavy 2: not shown
light: DIVMTQSPLSLPVTPGEPASISCQASESLVHSNRNTYLHWYLQKPGQSPQLLIYKVSNRFSGVPDRFSGSGSGTDFTLKISRVEAEDVGVYYCSQNTHVPPTFGQGTKVEIERTVAAPSVFIFPPSDEQLKSGTASVVCLLNNFYPREAKVQWKVDNALQSGNSQESVTEQDSKDSTYSLSSTLTLSKADYEKHKVYACEVTHQGLSSPVTKSFNRGEC
notes: as for B1
B10: GpH7-A5/GpH7-B3 variant N325_12R/GpL16-k0 (antibody, human IgG1, kappa)
heavy 1: not shown
heavy 2: not shown
light: DIVMTQSPLSLPVTPGEPASISCQASESLVHSNRNTYLHWYLQKPGQSPQLLIYKVSNRFSGVPDRFSGSGSGTDFTLKISRVEAEDVGVYYCSQNTHVPPTFGQGTKVEIERTVAAPSVFIFPPSDEQLKSGTASVVCLLNNFYPREAKVQWKVDNALQSGNSQESVTEQDSKDSTYSLSSTLTLSKADYEKHKVYACEVTHQGLSSPVTKSFNRGEC
notes: as for B1
B11: GpH7-A5/GpH7-B3 variant S298_10E/GpL16-k0 (antibody, human IgG1, kappa)
heavy 1: not shown
heavy 2: not shown
light: DIVMTQSPLSLPVTPGEPASISCQASESLVHSNRNTYLHWYLQKPGQSPQLLIYKVSNRFSGVPDRFSGSGSGTDFTLKISRVEAEDVGVYYCSQNTHVPPTFGQGTKVEIERTVAAPSVFIFPPSDEQLKSGTASVVCLLNNFYPREAKVQWKVDNALQSGNSQESVTEQDSKDSTYSLSSTLTLSKADYEKHKVYACEVTHQGLSSPVTKSFNRGEC
notes: as for B1
B12: GpH7-A5/GpH7-B3 variant S298_11K/GpL16-k0 (antibody, human IgG1, kappa)
heavy 1: not shown
heavy 2: not shown
light: DIVMTQSPLSLPVTPGEPASISCQASESLVHSNRNTYLHWYLQKPGQSPQLLIYKVSNRFSGVPDRFSGSGSGTDFTLKISRVEAEDVGVYYCSQNTHVPPTFGQGTKVEIERTVAAPSVFIFPPSDEQLKSGTASVVCLLNNFYPREAKVQWKVDNALQSGNSQESVTEQDSKDSTYSLSSTLTLSKADYEKHKVYACEVTHQGLSSPVTKSFNRGEC
notes: as for B1
B13: GpH7-A5/GpH7-B3 variant S298_14T/GpL16-k0 (antibody, human IgG1, kappa)
heavy 1: not shown
heavy 2: not shown
light: DIVMTQSPLSLPVTPGEPASISCQASESLVHSNRNTYLHWYLQKPGQSPQLLIYKVSNRFSGVPDRFSGSGSGTDFTLKISRVEAEDVGVYYCSQNTHVPPTFGQGTKVEIERTVAAPSVFIFPPSDEQLKSGTASVVCLLNNFYPREAKVQWKVDNALQSGNSQESVTEQDSKDSTYSLSSTLTLSKADYEKHKVYACEVTHQGLSSPVTKSFNRGEC
notes: as for B1
B14: GpH7-A5/GpH7-B3 variant N325_05P/GpL16-k0 (antibody, human IgG1, kappa)
heavy 1: not shown
heavy 2: not shown
light: DIVMTQSPLSLPVTPGEPASISCQASESLVHSNRNTYLHWYLQKPGQSPQLLIYKVSNRFSGVPDRFSGSGSGTDFTLKISRVEAEDVGVYYCSQNTHVPPTFGQGTKVEIERTVAAPSVFIFPPSDEQLKSGTASVVCLLNNFYPREAKVQWKVDNALQSGNSQESVTEQDSKDSTYSLSSTLTLSKADYEKHKVYACEVTHQGLSSPVTKSFNRGEC
notes: as for B1
B15: GpH7-A5/GpH7-B3 variant N325_02A/GpL16-k0 (antibody, human IgG1, kappa)
heavy 1: not shown
heavy 2: not shown
light: DIVMTQSPLSLPVTPGEPASISCQASESLVHSNRNTYLHWYLQKPGQSPQLLIYKVSNRFSGVPDRFSGSGSGTDFTLKISRVEAEDVGVYYCSQNTHVPPTFGQGTKVEIERTVAAPSVFIFPPSDEQLKSGTASVVCLLNNFYPREAKVQWKVDNALQSGNSQESVTEQDSKDSTYSLSSTLTLSKADYEKHKVYACEVTHQGLSSPVTKSFNRGEC
notes: as for B1
B16: GpH7-A5/GpH7-B3 variant A327_11K/GpL16-k0 (antibody, human IgG1, kappa)
heavy 1: not shown
heavy 2: not shown
light: DIVMTQSPLSLPVTPGEPASISCQASESLVHSNRNTYLHWYLQKPGQSPQLLIYKVSNRFSGVPDRFSGSGSGTDFTLKISRVEAEDVGVYYCSQNTHVPPTFGQGTKVEIERTVAAPSVFIFPPSDEQLKSGTASVVCLLNNFYPREAKVQWKVDNALQSGNSQESVTEQDSKDSTYSLSSTLTLSKADYEKHKVYACEVTHQGLSSPVTKSFNRGEC
notes: as for B1
B17: GpH7-A5/GpH7-B3 variant A327_16H/GpL16-k0 (antibody, human IgG1, kappa)
heavy 1: not shown
heavy 2: not shown
light: DIVMTQSPLSLPVTPGEPASISCQASESLVHSNRNTYLHWYLQKPGQSPQLLIYKVSNRFSGVPDRFSGSGSGTDFTLKISRVEAEDVGVYYCSQNTHVPPTFGQGTKVEIERTVAAPSVFIFPPSDEQLKSGTASVVCLLNNFYPREAKVQWKVDNALQSGNSQESVTEQDSKDSTYSLSSTLTLSKADYEKHKVYACEVTHQGLSSPVTKSFNRGEC
notes: as for B1

What was measured:
[1] = target: T1, FcγRIa (human, UniProt P12314 16-292); assay: SPR (Biacore), relative to GpH7-A5/GpH7-B3/GpL16-k0 = 100
T1 construct: extracellular domain; also called FcgRI; FcgRIa
T1 sequence (P12314 16-292): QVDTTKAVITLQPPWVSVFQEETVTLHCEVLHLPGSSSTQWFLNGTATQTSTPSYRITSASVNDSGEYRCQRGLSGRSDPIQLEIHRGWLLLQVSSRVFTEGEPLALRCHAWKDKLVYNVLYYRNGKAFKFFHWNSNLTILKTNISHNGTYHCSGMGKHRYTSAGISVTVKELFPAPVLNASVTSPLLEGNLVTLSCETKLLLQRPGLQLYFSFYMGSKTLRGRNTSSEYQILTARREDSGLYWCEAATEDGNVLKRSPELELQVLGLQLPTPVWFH

[2] = target: T2, FcγRIIb (human, UniProt P31994 43-217); assay: as above
T2 construct: extracellular domain; also called FcgRIIb; 2b
T2 sequence (looked up): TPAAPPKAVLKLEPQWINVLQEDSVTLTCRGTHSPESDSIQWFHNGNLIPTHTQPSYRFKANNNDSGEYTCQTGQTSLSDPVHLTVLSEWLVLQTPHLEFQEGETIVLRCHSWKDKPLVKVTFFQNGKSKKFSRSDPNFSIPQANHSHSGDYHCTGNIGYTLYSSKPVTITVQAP

[3] = target: T1, FcγRIa; assay: SPR (Biacore); He/Con_1a (FcgRIa) divided by He/Con_2b (FcgRIIb)
Experimental: The heterodimerized antibodies He Abs in which one of the H chains was introduced with an alteration were assayed for their binding activities to each activating FcγR and inhibitory FcγR according to the method described in Example 4. […] The activating FcγRs in FIGS. 26, 27, 28, and 29 are FcγRIa, FcγRIIa (R), FcγRIIa (H), and FcγRIIIa, respectively.
Analysis of interaction between objective antibody and the FcγR was carried out using Biacore T100 (GE Healthcare). HBS-EP+ (GE Healthcare) was used as the running buffer, and the measurement temperature was set to 25° C. Chips produced by immobilizing the antigen peptide by the amine coupling method to a Series S Sencor Chip CM5 (GE Healthcare), or alternatively, chips produced by allowing preliminarily biotinylated antigen peptides to interact with and immobilize onto a Series S Sensor Chip SA (certified) (GE Healthcare) were used. Antibodies of interest were captured onto an antigen peptide-immobilized chip, and allowed to interact to each FcγR diluted with running buffer. To regenerate and repeatedly use the chip, the antibodies captured on the chip were washed off by reacting 10 mM glycine-HCl, pH 1.5.

Row | Binder | He/Con_1a (Ia binding) [1] | He/Con_2b (IIb binding) [2] | Ia/IIb He_1a/2b [3]
1 | B1 | 98.6 relative (control = 100) | 63.1 relative (control = 100) | 1.56
2 | B2 | 109 relative (control = 100) | 57.8 relative (control = 100) | 1.89
3 | B3 | 96.3 relative (control = 100) | 60.8 relative (control = 100) | 1.58
4 | B4 | 96.2 relative (control = 100) | 54.2 relative (control = 100) | 1.78
5 | B5 | 80.9 relative (control = 100) | 10.4 relative (control = 100) | 7.81
6 | B6 | 106 relative (control = 100) | 48.3 relative (control = 100) | 2.19
7 | B7 | 102 relative (control = 100) | 79.5 relative (control = 100) | 1.29
8 | B8 | 95.1 relative (control = 100) | 70.1 relative (control = 100) | 1.36
9 | B9 | 99.1 relative (control = 100) | 69.1 relative (control = 100) | 1.43
10 | B10 | 84.2 relative (control = 100) | 19.1 relative (control = 100) | 4.41
11 | B11 | 108 relative (control = 100) | 47.6 relative (control = 100) | 2.28
12 | B12 | 109 relative (control = 100) | 61.3 relative (control = 100) | 1.78
13 | B13 | 107 relative (control = 100) | 77.9 relative (control = 100) | 1.37
14 | B14 | 88.8 relative (control = 100) | 26 relative (control = 100) | 3.42
15 | B15 | 96.8 relative (control = 100) | 64.4 relative (control = 100) | 1.5
16 | B16 | 86.1 relative (control = 100) | 12.5 relative (control = 100) | 6.87
17 | B17 | 96.5 relative (control = 100) | 63.5 relative (control = 100) | 1.52
